Consider one molecule from US20250320461A1, “GENETICALLY MODIFIED HUMAN STEM CELL EXPRESSING A MUTANT HUMAN CYTOCHROME P450 2B6 PROTEIN AND ITS USE THEREOF IN THE TREATMENT OF CANCER” (ASSISTANCE PUBLIQUE-HOPITAUX DE PARIS, priority 2019, published 2025).

The series in a line: affinity of cytochrome P450 2B6 protein for CPA. The series is classed as biochemical, human. From the text: In one particularly advantageous embodiment, said variants and fragments have an affinity for CPA the same as, substantially the same as, or greater than, that of the mutant human cytochrome P450 2B6 protein (CYP2B6*) of SEQ ID No 1.

B1: CYP2B6*: mutant human cytochrome P450 2B6 protein of SEQ ID No. 1 (substitutions I114V, L199M, V477W) (protein, listed as Homo sapiens)
chain: MELSVLLFLALLTGLLLLLVQRHPNTHDRLPPGPRPLPLLGNLLQMDRRGLLKSFLRFREKYGDVFTVHLGPRPVVMLCGVEAIREALVDKAEAFSGRGKIAMVDPFFRGYGVVFANGNRWKVLRRFSVTTMRDFGMGKRSVEERIQEEAQCLIEELRKSKGALMDPTFLFQSITANIICSIVFGKRFHYQDQEFLKMMNLFYQTFSLISSVFGQLFELFSGFLKYFPGAHRQVYKNLQEINAYIGHSVEKHRETLDPSAPKDLIDTYLLHMEKEKSNAHSEFSHQNLNLNTLSLFFAGTETTSTTLRYGFLLMLKYPHVAERVYREIEQVIGPHRPPELHDRAKMPYTEAVIYEIQRFSDLLPMGVPHIVTQHTSFRGYIIPKDTEVFLILSTALHDPHYFEKPDAFNPDHFLDANGALKKTEAFIPFSLGKRICLGEGIARAELFLFFTTILQNFSMASPVAPEDIDLTPQECGWGKIPPTYQIRFLPR
Regarding B1, the Vmax entry (compared with CYP2B6 WT) was “same”. Also, the “affinity for CPA relative to the wild-type protein (CYP2B6 WT)” value (vs CYP2B6 WT) is given as “more than 8 times”.
